Test results published in publication doi:10.1101/305292.

Target: GFP-tagged epidermal growth factor receptor (EGFR-GFP) (human) (UniProt P00533)
Test: dual-colour single-molecule TIRF colocalisation with step-wise photobleaching

percent of EGFR foci colocalised with EGF, across 60 min: 40%
percent of all EGFR molecules in foci colocalised with EGF: 64%
Substance: tetramethylrhodamine-labelled epidermal growth factor (EGF-TMR) (ligand)
